Data published in the supplement of paper PMC10567573.

B1: WDR41 (parent)
chain: HVGELIIWDALDWTMQAYERNFWD

Variants of: B1
Assay: protein stability index of a GFP-peptide fusion (GPS, HEK-293T) (PSI 1-6); higher = more stable
Conditions: c terminus: a fixed tail appended
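Note: lentivirally expressed fusions sorted by FACS into six bins by GFP to DsRed ratio, PSI derived from sequencing read proportions per bin multiplied by bin number.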

| Variant | protein stability index |
| --- | --- |
| HVGELIIWDALDWTMQAYERGFWD | 2.56 |
| HVGELIIWDALDWTMQAYERLFWD | 3 |
| HVGELIIWDALDWTMQAYERIFWD | 2.9 |
| HVGELIIWDALDWTMQAYERTFWD | 2.15 |
| HVGELIIWDALDWTMQAYEREFWD | 2.14 |
| HVGELIIWDALDWTMQAYERDFWD | 1.87 |
| HVGELIIWDALDWTMQAYERMFWD | 3.52 |
| HVGELIIWDALDWTMQAYERSFWD | 2.11 |
| HVGELIIWDALDWTMQAYERQFWD | 2.87 |
| HVGELIIWDALDWTMQAYERNFLD | 1.8 |
| HVGELIIWDALDWTMQAYERNFND | 1.71 |
| HVGELIIWDALDWTMQAYERNFED | 1.72 |
| HVGELIIWDALDWTMQAYERNFVD | 3.03 |
| HVGELIIWDALDWTMQAYERNFID | 2.83 |
| HVGELIIWDALDWTMQAYERNFGD | 2.62 |
| HVGELIIWDALDWTMQAYERNFKD | 1.39 |
| HVGELIIWDALDWTMQAYERNFCD | 1.71 |
| HVGELIIWDALDWTMQAYERNFDD | 1.89 |
| HVGELIIWDALDWTMQAYERNFPD | 1.45 |
| HVGELIIWDALDWTMQAYERNFSD | 1.82 |
| HVGELIIWDALDWTMQAAERNFWD | 3.71 |
| HVGELIIWDALDWTMQASERNFWD | 1.07 |
| HVGELIIWDALDWTMQACERNFWD | 3.15 |
| HVGELIIWDALDWTMQAHERNFWD | 1.6 |

| Variant | protein stability index |
| --- | --- |
| HVGELIIWDALDWTMQAKERNFWD | 2.17 |
| HVGELIIWDALDWTMQAEERNFWD | 1.12 |
| HVGELIIWDALDWTMQANERNFWD | 2.18 |
| HVGELIIWDALDWTMQARERNFWD | 2.81 |
| HVGELIIWDALDWTMMAYERNFWD | 2.63 |
| HVGELIIWDALDWTMGAYERNFWD | 1.78 |
| HVGELIIWDALDWTMIAYERNFWD | 2.45 |
| HVGELIIWDALDWTMCAYERNFWD | 2.77 |
| HVGELIIWDALDWTMQAYCRNFWD | 2.17 |
| HVGELIIWDALDWTMQAYNRNFWD | 1.91 |
| HVGELIIWDALDWTMQAYQRNFWD | 3.24 |
| HVGELIIWDALDWTMQAYVRNFWD | 1.87 |
| HVGELIIWDALDWTMQAYIRNFWD | 2.09 |
| HVGELIIWDALDWTMQAYTRNFWD | 1.44 |
| HVGELIIWDALDWTMQAYPRNFWD | 1.72 |
| HVGELIIWDALDWTMQAYARNFWD | 1.64 |
| HVGELIIWDALDWTMQAYHRNFWD | 2.77 |
| HVGELIIWDALDWTMQAYDRNFWD | 1.67 |
| HVGELIIWDALDWTMQAYEPNFWD | 2.05 |
| HVGELIIWDALDWTMQAYEANFWD | 1.32 |
| HVGELIIWDALDWTMQAYETNFWD | 3.97 |
| HVGELIIWDALDWTMQAYEKNFWD | 1.5 |
| HVGELIIWDALDWTMQAYENNFWD | 2.98 |
| HVGELIIWDALDWTMQAYEGNFWD | 1.75 |

| Variant | protein stability index |
| --- | --- |
| HVGELIIWDALDWTMQAYESNFWD | 1.56 |
| HVGELIIWDALDWTMQAYECNFWD | 1.24 |
| HVGELIIWDALDWTMQAYEENFWD | 1.46 |
| HVGELIIWDALDWTMQAYELNFWD | 3.16 |
| HVGELIIWDALDWTDQAYERNFWD | 1.76 |
| HVGELIIWDALDWTKQAYERNFWD | 3.06 |
| HVGELIIWDALDWTTQAYERNFWD | 1.05 |
| HVGELIIWDALDWTGQAYERNFWD | 1.06 |
| HVGELIIWDALDWTSQAYERNFWD | 1.88 |
| HVGELIIWDALDWTQQAYERNFWD | 2.44 |
| HVGELIIWDALDWTMQAYERNKWD | 1.41 |
| HVGELIIWDALDWTMQAYERNEWD | 3.79 |
| HVGELIIWDALDWTMQAYERNLWD | 2.35 |
| HVGELIIWDALDWTMQAYERNWWD | 1.74 |
| HVGELIIWDALDWTMQAYERNMWD | 2.71 |
| HVGELIIWDALDWTMQAYERNTWD | 3.49 |
| HVGELIIWDALDWTMQAYERNPWD | 1.75 |
| HVGELIIWDALDWTMQAYERNSWD | 1.57 |
| HVGELIIWDALDWTMQAYERNGWD | 2.8 |
| HVGELIIWDALDWPMQAYERNFWD | 2.28 |
| HVGELIIWDALDWGMQAYERNFWD | 2.08 |
| HVGELIIWDALDWSMQAYERNFWD | 1.24 |
| HVGELIIWDALDWQMQAYERNFWD | 1.38 |
| HVGELIIWDALDWNMQAYERNFWD | 1.42 |

| Variant | protein stability index |
| --- | --- |
| HVGELIIWDALDWYMQAYERNFWD | 4.99 |
| HVGELIIWDALDWDMQAYERNFWD | 1.68 |
| HVGELIIWDALDWKMQAYERNFWD | 2.31 |
| HVGELIIWDALDWVMQAYERNFWD | 2.54 |
| HVGELIIWDALDWTMQAYERNFWH | 4.96 |
| HVGELIIWDALDWTMQAYERNFWI | 3.06 |
| HVGELIIWDALDWTMQAYERNFWE | 3.24 |
| HVGELIIWDALDWTMQEYERNFWD | 2.26 |
| HVGELIIWDALDWTMQPYERNFWD | 1.76 |
| HVGELIIWDALDWTMQIYERNFWD | 1.15 |
| HVGELIIWDALDWTMQWYERNFWD | 3.37 |
| HVGELIIWDALDWTMQKYERNFWD | 2.09 |
| HVGELIIWDALDWTMQHYERNFWD | 1.63 |
| HVGELIIWDALDWTMQFYERNFWD | 3.37 |
| HVGELIIWDALDWTMQTYERNFWD | 1.74 |
| HVGELIIWDALDWTMQCYERNFWD | 2.5 |
| HVGELIIWDALDWTMQNYERNFWD | 4.42 |
| HVGELIIWDALDWTMQGYERNFWD | 1.81 |
| HVGELIIWDALDYTMQAYERNFWD | 2.84 |
| HVGELIIWDALDTTMQAYERNFWD | 1.97 |
| HVGELIIWDALDSTMQAYERNFWD | 3.29 |
| HVGELIIWDALDQTMQAYERNFWD | 2.21 |
